This data set deals with the molecule itself. In words: high-speed AFM; 10–200 μM TIR_(MyD88) adsorbed on mica for 10 min; 20 mM HEPES pH 7.0, 50 mM NaCl, 10 mM DTT; room temperature.

B1: TIR domain of MyD88 (TIR_(MyD88); residues 153–296) (domain or fragment, human, UniProt Q99836-1 153-296, looked up)
chain: PLGHMPERFDAFICYCPSDIQFVQEMIRQLEQTNYRLKLCVSDRDVLPGTCVWSIASELIEKRCRRMVVVVSDDYLQSKECDFQTKFALSLSPGAHQKRLIPIKYKAMKKEFPSILRFITVCDYTNPCTKSWFWTRLAKALSLP
notes: human MyD88, TIR domain, amino acids 153–296; Self-assembles into antiparallel double-stranded filaments, double-layered rings and cylindrical fibers; also called WT TIR_(MyD88); Toll/interleukin-1 receptor domain of MyD88
By stoichiometry N is commonly meant a count of units in the complex or per binding partner. Consider B1, for which the “stoichiometry N” value is 58.

Source of the values: article PMC13276377, “Structural Mechanism of Receptor-Triggered MyD88 Oligomeric Assembly in Innate Immune Signaling” (Nature Communications, 2026).
